Test results published in patent US20170129967A1 (CHEMOTHERAPEUTISCHES FORSCHUNGSINSTITUT GEORG SPEYER HAUS, published 2017).

Target: human ErbB2 (HER2) expressed on cells (Renca-lacZ/ErbB2 murine renal cell carcinoma cells); MDA-MB453 human … (human, UniProt P04626 23-1255)
Experiment: cell-based or functional assay

B1: chimeric antigen receptor (CAR) 5.28.z, on the surface of clonal NK-92/5.28.z cells (receptor)
chain: QVQLQQSGPELKKPGETVKISCKASGYPFTNYGMNWVKQAPGQGLKWMGWINTSTGESTFADDFKGRFDFSLETSANTAYLQINNLKSEDSATYFCARWEVYHGYVPYWGQGTTVTVSSGGGGSGGGGSGGGGSDIQLTQSHKFLSTSVGDRVSITCKASQDVYNAVAWYQQKPGQSPKLLIYSASSRYTGVPSRFTGSGSGPDFTFTISSVQAEDLAVYFCQQHFRTPFTFGSGTKLEIKALSNSIMYFSHFVPVFLPAKPTTTPAPRPPTPAPTIASQPLSLRPEACRPAAGGAVHTRGLDKPFWVLVVVGGVLACYSLLVTVAFIIFWVRSKRSRLLHSDYMNMTPRRPGPTRKHYQPYAPPRDFAAYRSRVKFSRSADAPAYQQGQNQLYNELNLGRREEYDVLDKRRGRDPEMGGKPRRKNPQEGLYNELQKDKMAEAYSEIGMKGERRRGKGHDGLYQGLSTATKDTYDALHMQALPPR
  specific lysis at an E/T ratio of 10:1 (NK-92/5.28.z irradiated with 10 Gy, MDA-MB453 target cells, 2 h co-incubation): 65 % specific lysis
